Test results taken from IntAct's records for PubMed 25394380.

Biological target: aph1a_human APH1A (UniProt Q96BI3)
Sequence (Q96BI3 whole entry): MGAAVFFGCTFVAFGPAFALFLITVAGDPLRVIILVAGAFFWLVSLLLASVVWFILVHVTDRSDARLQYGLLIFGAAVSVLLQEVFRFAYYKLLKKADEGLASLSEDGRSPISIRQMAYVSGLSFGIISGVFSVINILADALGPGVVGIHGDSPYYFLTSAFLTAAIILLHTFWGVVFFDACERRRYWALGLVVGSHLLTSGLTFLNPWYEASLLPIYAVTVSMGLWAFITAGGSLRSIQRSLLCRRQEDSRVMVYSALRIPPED

effect of a mutation on the interaction: with no effect
Substance: Presenilin-1 (Homo sapiens) (from UniProt P49768) G206D
